Assay results: patent US20240376170A1 (BRIGHT PEAK THERAPEUTICS, published 2024)
Bridges are numbered along the chain shown (N, C = ends). Primed or numbered codes have the meaning given here. [ ]: non-standard residue; d: D form. Ygp = O-(8x polyethylene glycol-amino)-tyrosine (Tyr, amino-capped PEG8); Yn3 = O-(9x polyethylene glycol-azido)-tyrosine (Tyr, azide-capped PEG9); Ygp(7) = Tyr with amino-capped PEG8, O-(PEG8-amino)-tyrosine; Yn3(7) = Tyr with azide-capped PEG9, O-(PEG9-azido)-tyrosine; Ygp″ = O-(8x polyethylene glycol-amino)-tyrosine; Yn3″ = O-(9x polyethylene glycol-azido)-tyrosine; Ygp(3) = O-(PEG8-amino)-tyrosine; Yn3(3) = O-(PEG9-azido)-tyrosine; hSer = N[C@@H](CCO)C(=O)O; Nle = CCCC[C@H](N)C(=O)O; Dab = NCC[C@H](N)C(=O)O

How the values were obtained:
[1] = target: T1, IL-2 receptor βγ complex on human T cells (human, UniProt P14784 27-551; P31785 23-369); test: cell-based or functional assay
T1 sequence (looked up) 1: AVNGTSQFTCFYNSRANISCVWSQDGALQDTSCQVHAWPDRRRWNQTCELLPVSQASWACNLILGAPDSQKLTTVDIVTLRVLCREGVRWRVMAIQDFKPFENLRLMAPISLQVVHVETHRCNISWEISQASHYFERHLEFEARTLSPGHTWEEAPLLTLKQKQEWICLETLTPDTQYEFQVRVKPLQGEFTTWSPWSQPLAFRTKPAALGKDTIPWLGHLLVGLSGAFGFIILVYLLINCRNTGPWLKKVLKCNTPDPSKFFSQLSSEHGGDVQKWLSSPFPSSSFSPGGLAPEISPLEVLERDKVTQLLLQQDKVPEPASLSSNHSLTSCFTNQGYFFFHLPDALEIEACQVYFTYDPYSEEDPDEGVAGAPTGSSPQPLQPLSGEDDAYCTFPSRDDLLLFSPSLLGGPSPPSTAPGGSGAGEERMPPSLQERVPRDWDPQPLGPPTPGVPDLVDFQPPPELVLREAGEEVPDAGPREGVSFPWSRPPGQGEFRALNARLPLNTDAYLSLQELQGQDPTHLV
T1 sequence (looked up) 2: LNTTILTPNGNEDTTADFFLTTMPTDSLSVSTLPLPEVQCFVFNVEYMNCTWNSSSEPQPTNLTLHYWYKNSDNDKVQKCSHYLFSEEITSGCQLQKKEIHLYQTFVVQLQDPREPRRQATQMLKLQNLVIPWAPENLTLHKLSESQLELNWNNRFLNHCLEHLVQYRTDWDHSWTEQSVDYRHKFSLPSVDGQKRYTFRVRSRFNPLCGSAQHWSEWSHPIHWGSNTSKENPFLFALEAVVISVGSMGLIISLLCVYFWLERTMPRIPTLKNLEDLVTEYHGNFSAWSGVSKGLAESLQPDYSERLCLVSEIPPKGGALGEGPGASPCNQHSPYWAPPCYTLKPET

[2] = target: T2, Avi-tag Fc with human IL-2R beta and IL-2R gamma attached (Acrobiosystems ACRB-ILG-H82F3-25UG) (human, UniProt P14784 27-239; P31785 23-262); test: BLI (Octet R8), receptor on SAX2 sensor
T2 construct: Bought; attached to the SAX2 biosensor; also called CD122 CD132; IL-2R βγ; not shown: Fc and Avi-tag
T2 sequence (looked up) 1: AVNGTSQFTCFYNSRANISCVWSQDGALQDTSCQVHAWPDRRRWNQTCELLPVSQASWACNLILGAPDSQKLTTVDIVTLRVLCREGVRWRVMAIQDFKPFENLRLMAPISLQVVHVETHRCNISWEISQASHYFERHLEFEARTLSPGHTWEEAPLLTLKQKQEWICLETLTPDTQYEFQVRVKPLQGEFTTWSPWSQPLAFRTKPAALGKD
T2 sequence (looked up) 2: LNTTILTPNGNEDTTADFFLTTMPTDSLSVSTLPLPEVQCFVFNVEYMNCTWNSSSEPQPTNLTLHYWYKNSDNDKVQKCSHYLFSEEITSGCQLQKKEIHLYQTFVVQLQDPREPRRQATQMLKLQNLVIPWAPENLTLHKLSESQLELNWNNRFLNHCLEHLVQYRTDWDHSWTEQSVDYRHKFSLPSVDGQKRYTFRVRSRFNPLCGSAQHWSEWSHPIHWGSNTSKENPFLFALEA
Protocol: (§1) Bilayer interferometry (BLI) assays were used to measure the binding constants between activatable IL-2 polypeptides (and activated versions thereof) to IL-2 receptor subunits or receptor complexes. BLI assays were conducted on an Octet® R8 instrument. Assay plates were 96 well, polypropylene, F-bottom (chimney well), black microplates (Greiner Bio-one, Cat. No: 655209). The biosensors were Octet® SAX2 (Sartorius, Cat. No: 18-5136). The assay buffer was 1X Kinetic Buffer (Sartorius, Cat. no: 18-5136) or Phosphate Buffered Saline (PBS) that contained 0.02% (v: v) Tween 20 (Polysorbate 20) and 0.1% (w/v) bovine serum albumin (BSA). The sensor was regenerated between measurements in 10 mM glycine pH 2.7 buffer.
(§2) Sensor attached receptors were either recombinant human IL-2 receptor beta containing a His-tag and Avi-tag™ (R&D Systems™) or an Avi-tag™ Fc with human IL-2R beta and IL-2R gamma attached (Acrobiosystems Cat. no: ACRB-ILG-H₈₂F3-25UG). Receptors were reconstituted from lyophilized powder to 500 μg/ml in PBS. Analytes were diluted in Kinetic buffer to 300 nM, then serially diluted to lower concentrations.

[3] = target: T3, recombinant human IL-2 receptor beta containing a His-tag and Avi-tag (human, UniProt P14784 27-239); test: BLI (Octet R8), receptor on SAX2 sensor; construct CMP-145, not MMP2-treated
T3 construct: Bought; attached to the SAX2 biosensor; also called CD122; IL-2R β; not shown: His-tag and Avi-tag
T3 sequence (looked up): T2 sequence (looked up) 1
Protocol: as §1, §2

[4] = target: T2, Avi-tag Fc with human IL-2R beta and …; test: as above
Protocol: as §1, §2

[5] = target: T3, recombinant human IL-2 receptor beta …; test: BLI (Octet R8), receptor on SAX2 sensor; construct CMP-168, intact (no MMP2)
Protocol: as §1, §2

[6] = target: T3, recombinant human IL-2 receptor beta …; test: BLI (Octet R8), receptor on SAX2 sensor
Protocol: as §1, §2

[7] = target: T3, recombinant human IL-2 receptor beta …; test: BLI (Octet R8), receptor on SAX2 sensor; CMP-168 treated with MMP2 (cleaved)
Protocol: as §1, §2

[8] = target: T3, recombinant human IL-2 receptor beta …; test: BLI (Octet R8), receptor on SAX2 sensor; construct CMP-165, intact (no MMP2)
Protocol: as §1, §2

[9] = target: T2, Avi-tag Fc with human IL-2R beta and …; test: as above
Protocol: as §1, §2

[10] = target: T3, recombinant human IL-2 receptor beta …; test: BLI (Octet R8), receptor on SAX2 sensor; CMP-165 treated with MMP2 (cleaved)
Protocol: as §1, §2

[11] = target: T2, Avi-tag Fc with human IL-2R beta and …; test: as above
Protocol: as §1, §2

[12] = target: T3, recombinant human IL-2 receptor beta …; test: BLI (Octet R8), receptor on SAX2 sensor; construct CMP-166, intact (no MMP2)
Protocol: as §1, §2

[13] = target: T2, Avi-tag Fc with human IL-2R beta and …; test: as above
Protocol: as §1, §2

B1: CMP-130 (ligand)
chain: APTSSSTKKTQLQLE[Dab]LLLDLQ[Nle]ILNGINNYKNPKLTR[Nle]L[hSer][Yn3(7)]KF[Ygp(7)][Nle]PKKATELKHLQCLEEELKPLEEVL[hSer]LAQSKNFHLRPRDLISNINVIVLELKGSETTF[hSer]CEYADETATIVEFLNRWITFSQSIISTLT
modifications: ends and bridges not checked
[1]
  Average EC50, pSTAT5 Assay (T cells), intact molecule: 66.8 nM

B2: CMP-145 (ligand)
chain: APTSSSTKKTQLQLEHLLLDLQKILNGINNYKNPKLTR[Nle]L[hSer][Yn3(3)]KF[Ygp(3)][Nle]PKKATELKHLQCLEEELKPLEEVL[hSer]LAQSKNFHLRPRDLISNINVIVLELKGSETTF[hSer]CEYADETATIVEFLNRWITFSQSIISTLT
modifications: also: Lys23 side chain attached to another sequence (not given here)
notes: Synthetic IL-2 polypeptide, tested intact
[2]
  koff: 0.00117 s⁻¹
[3]
  Kd: 1.83 µM
[4]
  Kd: 0.0102 µM

B3: CMP-168 (ligand)
chain: APTSSSTKKTQLQLEHLLLDLQEILNGINNYKNPKLTR[Nle]L[hSer][Yn3″]KF[Ygp″][Nle]PKKATELKHLQCLEEELKPLEEVL[hSer]LAQSKNFHLRPRDLISNINVIVLELKGSETTF[hSer]CEYADETATIVEFLNRWITFSQSIISTLT
modifications: bridge 9-23; not fully specified (bridges); ends not checked
[5]
  Kd: 25.1 µM
[2]
  koff: 0.0022 s⁻¹

B4: CMP-168, MMP2 cleaved (ligand)
chain: APTSSSTKKTQLQLEHLLLDLQEILNGINNYKNPKLTR[Nle]L[hSer][Yn3″]KF[Ygp″][Nle]PKKATELKHLQCLEEELKPLEEVL[hSer]LAQSKNFHLRPRDLISNINVIVLELKGSETTF[hSer]CEYADETATIVEFLNRWITFSQSIISTLT
modifications: ends and bridges not checked; also: MMP2 cleaved, ring opened, cut site and remnants not given here
notes: Tested after MMP2 treatment
[6]
  koff: 1.08 s⁻¹
  kon: 789 M⁻¹ s⁻¹
[2]
  Kd: 0.00227 µM
  koff: 0.00164 s⁻¹
  kon: 602000 M⁻¹ s⁻¹
[7]
  Kd: 1370 µM

B5: CMP-165 (ligand)
chain: APTSSSTKKTQLQLEHLLLDLQKILNGINNYKNPKLTR[Nle]L[hSer][Yn3]KF[Ygp][Nle]PKKATELKHLQCLEEELKPLEEVL[hSer]LAQSKNFHLRPRDLISNINVIVLELKGSETTF[hSer]CEYADETATIVEFLNRWITFSQSIISTLT
modifications: bridge N-23; not fully specified (bridges); ends not checked; also: sequence of the cleavable peptide in the bridge not given here
[6]
  koff: 0.633 s⁻¹
[8]
  Kd: 44.2 µM
[9]
  Kd: 26.1 pM

B6: CMP-165, MMP2 cleaved (ligand)
chain: APTSSSTKKTQLQLEHLLLDLQKILNGINNYKNPKLTR[Nle]L[hSer][Yn3]KF[Ygp][Nle]PKKATELKHLQCLEEELKPLEEVL[hSer]LAQSKNFHLRPRDLISNINVIVLELKGSETTF[hSer]CEYADETATIVEFLNRWITFSQSIISTLT
modifications: also: glutaryl-peptide bridge Ala1 to Lys23 cut by MMP2, site not given here, ring opened
notes: Tested after MMP2 treatment
[6]
  koff: 0.237 s⁻¹
  kon: 213000 M⁻¹ s⁻¹
[2]
  koff: 0.00114 s⁻¹
  kon: 608000 M⁻¹ s⁻¹
[10]
  Kd: 1.11 µM
[11]
  Kd: 0.00187 µM

B7: CMP-166 (ligand)
chain: APTSSSTKKTQLQLEHLLLDLQKILNGINNYKNPKLTR[Nle]L[hSer][Yn3]KF[Ygp][Nle]PKKATELKHLQCLEEELKPLEEVL[hSer]LAQSKNFHLRPRDLISNINVIVLELKGSETTF[hSer]CEYADETATIVEFLNRWITFSQSIISTLT
modifications: bridge N-23; not fully specified (bridges); ends not checked; also: sequence of the cleavable peptide in the bridge not given here
[12]
  Kd: 0.614 µM
[13]
  Kd: 0.0161 µM
[6]
  koff: 0.613 s⁻¹
